Assay results published in PMC12955825 (Med (New York, N.Y.), 2025).
Bridge positions count the residues as written; N and C are the ends. Ends that are not written are not given here.

Columns and labels:
[1] = target: T1, CALR, human recombinant protein (human, UniProt P27797 18-417); assay: circular dichroism
T1 sequence (looked up): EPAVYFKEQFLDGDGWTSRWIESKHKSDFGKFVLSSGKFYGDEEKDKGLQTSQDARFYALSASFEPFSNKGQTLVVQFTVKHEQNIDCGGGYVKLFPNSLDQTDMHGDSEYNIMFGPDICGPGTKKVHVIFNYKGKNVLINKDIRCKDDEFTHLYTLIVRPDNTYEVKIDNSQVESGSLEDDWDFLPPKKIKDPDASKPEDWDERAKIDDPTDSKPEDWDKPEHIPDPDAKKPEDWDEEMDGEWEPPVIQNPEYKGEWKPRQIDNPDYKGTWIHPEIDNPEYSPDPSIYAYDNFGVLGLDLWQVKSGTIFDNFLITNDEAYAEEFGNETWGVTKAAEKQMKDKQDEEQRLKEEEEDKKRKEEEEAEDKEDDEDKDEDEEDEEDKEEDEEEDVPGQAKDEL

cystatin-A = target: T2, cystatin-A (human, UniProt P01040 1-98); assay: phage-binding assay
T2 sequence (looked up): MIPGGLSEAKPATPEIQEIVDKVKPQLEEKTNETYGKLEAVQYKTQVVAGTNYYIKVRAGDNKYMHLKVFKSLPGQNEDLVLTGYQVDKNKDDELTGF

[2] = target: T3, CASQ1, human recombinant protein (human, UniProt P31415 35-396); assay: phage-binding assay
T3 sequence (looked up): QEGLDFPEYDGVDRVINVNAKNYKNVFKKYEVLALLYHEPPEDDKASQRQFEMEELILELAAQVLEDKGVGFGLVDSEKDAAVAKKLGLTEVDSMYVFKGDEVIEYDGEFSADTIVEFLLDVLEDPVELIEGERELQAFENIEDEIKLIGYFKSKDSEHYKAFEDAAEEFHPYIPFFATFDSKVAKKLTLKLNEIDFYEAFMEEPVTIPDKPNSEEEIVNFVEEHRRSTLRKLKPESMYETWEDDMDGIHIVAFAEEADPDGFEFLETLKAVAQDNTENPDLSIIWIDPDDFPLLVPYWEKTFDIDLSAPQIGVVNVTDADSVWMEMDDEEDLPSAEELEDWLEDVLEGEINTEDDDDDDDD

[3] = target: HSP27, human recombinant protein (human, UniProt P04792 1-205); assay: phage-binding assay
[4] = target: T4, histidine-rich glycoprotein (human, UniProt P04196 19-525); assay: phage-binding assay
T4 sequence (looked up): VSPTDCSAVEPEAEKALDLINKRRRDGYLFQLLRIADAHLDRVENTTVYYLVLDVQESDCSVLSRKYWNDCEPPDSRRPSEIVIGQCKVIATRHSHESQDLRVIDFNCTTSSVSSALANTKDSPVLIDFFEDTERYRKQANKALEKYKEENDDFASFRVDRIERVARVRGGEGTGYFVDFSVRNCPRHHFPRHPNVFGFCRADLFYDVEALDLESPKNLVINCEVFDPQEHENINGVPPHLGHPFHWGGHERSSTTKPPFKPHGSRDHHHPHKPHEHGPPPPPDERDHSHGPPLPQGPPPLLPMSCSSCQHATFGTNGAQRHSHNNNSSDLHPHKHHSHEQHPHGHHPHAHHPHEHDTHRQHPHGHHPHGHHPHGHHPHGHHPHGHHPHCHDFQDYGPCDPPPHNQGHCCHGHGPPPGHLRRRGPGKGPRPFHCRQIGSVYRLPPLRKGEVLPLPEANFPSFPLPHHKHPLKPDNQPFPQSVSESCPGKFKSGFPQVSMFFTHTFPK

Sequence of HSP27, human recombinant protein (P04792 whole entry): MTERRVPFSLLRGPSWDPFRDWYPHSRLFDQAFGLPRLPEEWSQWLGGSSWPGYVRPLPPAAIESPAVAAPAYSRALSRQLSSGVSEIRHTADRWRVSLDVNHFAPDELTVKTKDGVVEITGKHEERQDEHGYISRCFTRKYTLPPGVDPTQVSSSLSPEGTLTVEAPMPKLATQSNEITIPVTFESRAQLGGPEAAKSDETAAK

B1: CRQRPASGC peptide (C1-C9 disulfide bridge) (peptide)
peptide: CRQRPASGC
modifications: disulfide 1-9
B1: binds [1].

B2: CEARASGSRC-displaying phage (peptide)
peptide: CEARASGSRC
modifications: disulfide 1-10
B2: binds (cystatin-A).

B3: CLRGFPALVC peptide (C1-C10 disulfide bridge) (peptide)
peptide: CLRGFPALVC
modifications: disulfide 1-10
B3: binds [2].

B4: CSEIGVRAC peptide (C1-C9 disulfide bridge) (peptide)
peptide: CSEIGVRAC
modifications: disulfide 1-9
B4: binds [3].

B5: CVGQVGGRRC-displaying phage (peptide)
peptide: CVGQVGGRRC
modifications: disulfide 1-10
B5: binds [4].
